Tests used:
[1] = target: T1, recombinant rat Acox1 with C-terminal myc-6xHis tag, P07872
T1 chain: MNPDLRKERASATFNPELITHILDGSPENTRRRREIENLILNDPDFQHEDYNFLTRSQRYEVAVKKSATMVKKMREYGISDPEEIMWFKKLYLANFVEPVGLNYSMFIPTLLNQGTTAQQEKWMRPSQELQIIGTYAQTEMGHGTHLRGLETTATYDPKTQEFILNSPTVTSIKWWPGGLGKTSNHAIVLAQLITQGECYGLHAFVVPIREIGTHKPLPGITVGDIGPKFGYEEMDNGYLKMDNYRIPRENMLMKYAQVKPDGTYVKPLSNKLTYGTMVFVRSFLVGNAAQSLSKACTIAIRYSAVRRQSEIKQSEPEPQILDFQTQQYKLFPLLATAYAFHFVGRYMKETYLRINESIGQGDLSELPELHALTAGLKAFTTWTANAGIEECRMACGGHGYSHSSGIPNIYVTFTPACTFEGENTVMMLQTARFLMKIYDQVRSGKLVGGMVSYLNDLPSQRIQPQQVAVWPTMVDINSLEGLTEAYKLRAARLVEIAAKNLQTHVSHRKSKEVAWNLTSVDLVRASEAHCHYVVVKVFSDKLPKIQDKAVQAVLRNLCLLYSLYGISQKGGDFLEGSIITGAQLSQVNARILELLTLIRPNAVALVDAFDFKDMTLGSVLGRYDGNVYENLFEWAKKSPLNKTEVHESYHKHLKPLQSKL

[2] = target: T2, recombinant rat Acaa1 with 6xHis N-terminal tag, P07871
T2 chain: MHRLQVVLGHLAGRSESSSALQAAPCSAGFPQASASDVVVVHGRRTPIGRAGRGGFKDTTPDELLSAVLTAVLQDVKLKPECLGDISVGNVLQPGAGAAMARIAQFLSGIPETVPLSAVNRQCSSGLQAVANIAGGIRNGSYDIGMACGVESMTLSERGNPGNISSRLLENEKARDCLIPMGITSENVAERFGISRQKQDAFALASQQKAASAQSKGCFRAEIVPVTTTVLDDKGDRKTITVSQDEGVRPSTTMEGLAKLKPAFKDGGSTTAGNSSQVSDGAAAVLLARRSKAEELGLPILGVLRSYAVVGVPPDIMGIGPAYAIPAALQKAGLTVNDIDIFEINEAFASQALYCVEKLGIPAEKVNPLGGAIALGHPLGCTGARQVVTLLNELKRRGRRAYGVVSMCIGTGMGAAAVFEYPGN

[3] = target: T3, recombinant mouse Scp2 with C-terminal myc-6xHis tag, P32020
T3 chain: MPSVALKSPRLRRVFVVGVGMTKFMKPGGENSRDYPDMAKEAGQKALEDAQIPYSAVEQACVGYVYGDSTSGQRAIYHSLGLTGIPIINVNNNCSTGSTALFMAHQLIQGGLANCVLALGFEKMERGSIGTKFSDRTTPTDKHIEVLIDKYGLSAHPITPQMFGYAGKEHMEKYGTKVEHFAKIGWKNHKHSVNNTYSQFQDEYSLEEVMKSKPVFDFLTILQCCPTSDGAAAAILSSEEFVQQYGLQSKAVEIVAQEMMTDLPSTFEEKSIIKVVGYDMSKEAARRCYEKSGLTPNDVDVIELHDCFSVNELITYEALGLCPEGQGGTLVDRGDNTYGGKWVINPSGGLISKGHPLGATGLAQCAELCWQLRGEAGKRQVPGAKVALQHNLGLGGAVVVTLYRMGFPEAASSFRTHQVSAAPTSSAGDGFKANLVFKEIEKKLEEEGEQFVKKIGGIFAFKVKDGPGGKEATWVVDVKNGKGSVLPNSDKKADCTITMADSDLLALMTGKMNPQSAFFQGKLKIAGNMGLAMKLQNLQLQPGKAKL

B1: recombinant Tysnd1-FLAG purified from COS-7 cells (protein)
chain 1: MGRQWGPSMRVAEQAGCVVSASRAGQPDAGSWSCSGVILSRNPGLVLCHGGIFTPFLRTGSAALTQTGTAFLPGDSCSDDLRLHVQWGPTAASPAGRADQELPGLCTPQCASLGLEPGAPSRARARPLQPPRPAQLLLLLSCPAFRSHFARLFGADAVDQWHFVSSAPDDAVSEEEEEDQLRALGWFALLRVQRGAAAEERRGPVVTVAPLGAVVKGAPLLACGSPFGAFCPDIFLNTLSRGVLSNAAGPLLLTDARCLPGTEGGGVFAARPAGALVALVAAPLCWKAREWVGLTLLCAAAPLLQVARWALARLHPGSASLSVLLPPPDVSTPRGLPLRDLGPPWAAAAVLVECGTVWGSGVVVAPRLVVTCRHVAPREAARVLVHSATPKNVAIWGQVVFATQETSPYDIAVVSLEEELNGVPTPVPAGHFHEGEPVSVVGFGVFGQACGPSVTSGILSAVVRVDGSPVMLQTTCAVHGGSSGGPLFSSGSGDLLGIVASNTRDNNTGATYPHLNFSIPITVLQPALKQYSQTGDLGGLRELDHTTEPVRVVWRLQRPLSE
chain 2: VPRSKL
B1 was tested, and the “in vitro cleavage (Western blot with anti-cMyc antibody)” value [1] was “Acox1 was cleaved to produce C-terminal fragment of 28 kDa”, the “in vitro cleavage (Amido Black staining of the membrane)” value [2] was “Incubation of Tysnd1 with Acaa1 resulted in the removal of 3 kDa PTS2-containing N-terminal propeptide to produce mature Acaa1” and the “in vitro cleavage (Western blot with anti-cMyc antibody)” value [3] was “Scp2 was processed to generate C-terminal fragment of 16 kDa”.
